From patent US20250282887A1 (Amgen, published 2025) come the findings set out here.

The target in assay [1] is T1, Human MAGEB2 (Melanoma-associated antigen B2) (human, UniProt O15479 1-319).
T1 construct: Intracellular antigen detected by IHC in FFPE material: CHO cells transfected with human MAGEB2 (mCherry vector with Myc/DDK tags, or ORF without tags)
T1 sequence: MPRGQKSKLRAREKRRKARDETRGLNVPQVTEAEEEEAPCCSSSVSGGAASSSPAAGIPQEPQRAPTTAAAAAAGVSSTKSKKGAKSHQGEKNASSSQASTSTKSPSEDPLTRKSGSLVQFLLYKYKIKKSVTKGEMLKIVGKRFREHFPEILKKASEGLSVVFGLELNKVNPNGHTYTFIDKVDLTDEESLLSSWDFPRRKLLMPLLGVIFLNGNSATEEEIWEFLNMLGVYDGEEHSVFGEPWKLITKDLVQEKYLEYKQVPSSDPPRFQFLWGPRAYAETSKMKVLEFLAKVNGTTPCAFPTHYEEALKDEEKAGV
Put plainly: IHC, antibody supernatant on FFPE CHO cells transfected with human MAGEB2. The source says:
Negative control cells included parental Chinese hamster ovary (CHO) cells, CHO cells stably transfected with mCherry Vector Control (minus Myc/DDK tags), CHO cells stably transfected with mCherry-human DCAF4L2 (plus Myc/DDK tags). The cross-reactivity control cells included CHO cells transfected with mCherry Vector Control (plus Myc/DDK tags) with one of the human MAGE-B or MAGE-A family members (MAGEA1, MAGEA2, MAGEA3, MAGEA4, MAGEA5, MAGEA6, MAGEA8, MAGEA9, MAGEA11, MAGEA12, MAGEB1, MAGEB3, MAGEB4, MAGEB5, MAGEB6, MAGEB10, MAGEB16, MAGEB17, MAGEB18). Positive control cell lines included CHO cells transfected with mCherry Vector (plus Myc/DDK tags) with human MAGE-B2 or CHO cells transfected with mCherry Vector (open reading frame (ORF); minus Myc/DDK tags) with human MAGEB2, and thirteen human cancer cell lines with known endogenous RNA expression level of MAGEB2 (U266B1, T98G, KMM-1, U20S, CFPAC-1, SCaBER, UACC-257, CFPAC-1, VMRC-LCD, NCI-H1703, UM-UC-3, NCI-H1395, NCIH82).
FFPE samples were sectioned at 4 μm and mounted on positive charged glass slides. After mounting, paraffin sections were air-dried at room temperature. FFPE TMA samples were received as freshly sectioned and mounted on glass slides. The fully automated IHC assay was performed on a Discovery Ultra Stainer (Ventana Medical Systems, Tucson, AZ) using Ventana Anti-Rabbit HQ (cat #760-4815), Ventana Anti-HQ HRP (cat #760-4820), and Ventana Antibody Diluent with Casein (cat #760-219) (Ventana Medical Systems, Tucson, AZ). The slides were baked on the Discovery Ultra Stainer at 60° C. for 8 minutes, de-paraffinized with Ventana Discovery wash (cat #950-510) for 3 cycles (8 minutes each) at 69° C., and underwent cell conditioning (target retrieval) at 95° C. for 16 minutes (for cell arrays) or 32 minutes (tissues or TMAs) in CC1 buffer (cat #950-500). Following this, slides were incubated with Background Sniper (cat #BS966M, Biocare Medical, Pacheco, CA) in a Ventana Option Prep kit (cat #771-751) for 28 minutes, incubated with CM inhibitor (a part of the Ventana DAB kit cat #760-159) for 12 minutes, and incubated for 1 h at RT with MAGE-B2 antibody diluted with Ventana diluent with Casein in a Ventana Prep kit (cat #770-001) (working concentration at 0.1 μg/ml for cell pellet, or 1-5 ug/ml for tissues) or with a matched concentration of isotype control Rabbit IgG1 antibody.

For assay [2], the target named is T2, huMAGEB2(1-319), biotinylated full length MAGEB2 protein (human, UniProt O15479 1-319, biotinylated with recombinant BirA (site not stated)).
T2 construct: Expressed in E. coli from pET23; N-terminal 6xHis tag removed with caspase 3; also called Biotinylated MAGEB2 full length protein
T2 sequence: T1 sequence
Put plainly: limited antigen FACS; biotinylated full length MAGEB2 on LumAvidin beads; B-cell supernatant. The procedure:
Biotinylated MAGEB2 full length protein was titrated 1:2 across 6 different limited antigen concentrations and then coated onto six different LumAvidin beads in FACS buffer [1×PBS+2% fetal bovine serum (Hyclone Cat No. SH30396.03)] for 30 minutes at room temperature in the dark. The beads were then washed twice in FACS buffer by centrifugation for 2 min at 3500 RPM. The coated beads were resuspended and pooled together (6-plex) and added to the rabbit B-cell supernatants at a 1:2 final dilution onto Corning 3897 96 well V-bottom polystyrene plates and incubated overnight at room temperature in the dark. […] A final wash was done before plates were read on the iQue FACS machine with Intellicyte autosampler to obtain flow cytometry measurements according to the manufacturer's recommendations; data analysis was done on Intellicyt ForeCyt® Enterprise Client Edition 6.2 (R3).

B1: 1G24 (antibody, IgG1, V domains shown)
VH: QSLEESGGGLVQPEGSLTLTCTASGFTLNNYYICWVRQAPGKGLEWIACIDNANGRTYYANWAKGRFTISKTSSTTVTLQMTSLTAADTATYFCARSLATPLWGPGTLVTVSS
VL: DIVMTQTPASVEAAVGGTVTIKCQASESIGNALAWYQQKPGQPPSLLIYRASTLASGIPSRVKGSGSGTQFTLTISDLECADAATYYCQSYDDSSSSSFFYAFGGGTEVVVK
notes: Rabbit monoclonal IgG1
Regarding B1, the binding result in assay [1] and in assay [2] was “binds” each time.

B2: 1I23 (antibody, IgG1, V domains shown)
VH: QEQLVESGGGLVQPKGSLTLTCAASGFSFSSSYFMCWVRQAPGKGLEWIACIGSGSSAISTFYASWAQGRFTISKTSSTTVTLQMTSLTAADTATYFCARVGYDDYGDSDAFDPWGPGTLVTVSS
VL: AAVLTQTPSPVSAAVGGTVSISCQSSKSVYNKNWLSWFQQKPGQPPKLLIYGASTLASGVPSRFKGSGSGTQFTLTISDVQCDDAATYYCAGGYSSSSDTFAFGGGTEVVVK
notes: Rabbit monoclonal IgG1
Regarding B2, the binding result in assay [1] and in assay [2] was “binds” each time.
